According to patent publication US8357523B2, “Beta-glucosidase variant enzymes and related polynucleotides” (Codexis, Inc., priority 2009, dated 2013):

Assay: High throughput cellobiose assay: fold improvement in cellobiase activity of CelA variants over a control enzyme (Tables 2A-2D, 3, 5, 6, 7)
Assay type: biochemical
Settings: 3.3 g/l cellobiose, 50° C. and pH 6.5; compared to native CelA (SEQ ID NO: 4)
Procedure: β-glucosidase activity was also determined using a cellobiose assay, which used cellobiose as substrate. In a total volume of 100 μL, 25 μL clear media supernatant containing CelA enzyme was added to 10 g/L cellobiose (Fluka Cat. No. 22150, Sigma-Aldrich, Inc., St. Louis, Mo.) in 100 mM sodium phosphate buffer (pH 6-7) or sodium acetate buffer (pH 5-5.5). The reaction was incubated at 45-70° C. for an appropriate time (25 minutes to overnight depending on the enzyme concentration) while shaking. Glucose production was determined using an enzymatic glucose assay (K-GLUC, Megazyme, Ireland). 10 μl of each reaction was added to 190 μl GOPOD reagent (supplied as part of the K-GLUC assay kit). The reaction was incubated at 45° C. for 20 minutes and the absorbance of the solution was measured at 510 nm. The GOPOD reagent contains 50 mM Potassium phosphate buffer pH7.4, 0.011M p-hydroxybenzoic acid, 0.008% w/v sodium azide, glucose oxidase (>12,000 U/L), peroxidase (>650 U/L) and 80 mg/L 4-aminoantipyrine. The glucose oxidase enzyme in the reagent reacts with any glucose present in the sample and produces hydrogen peroxide which then reacts with the 4-aminoantipyrine to produce a quinoneimine dye in quantities proportionate with the amount of glucose present and can be measured spectrophotometrically at 510 nm. Detectable β-glucosidase activity was observed under high throughput screening conditions (i.e., pH 7, 50° C.).
Plasmid libraries containing variant CelA genes were transformed into B. megaterium and plated on Luria-Bertani (LB) agar plates containing 3 μg/mL tetracycline with a DM3 regeneration media overlay (400 mM sodium succinate dibasic, pH 7.3, 0.5% casamino acids, 0.5% yeast extract, 0.4% K2HPO4, 0.2% KH2PO4, 20 mM MgCl2, 0.5% glucose and 0.2% BSA). After incubation for at least 18 hours at 30° C., colonies were picked using a Q-bot® robotic colony picker (Genetix USA, Inc., Beaverton, Oreg.) into shallow, 96-well well microtiter plates containing 180 μL, LB and 10 μg/mL tetracycline. Cells were grown overnight at 37° C. with shaking at 200 rpm and 85% humidity. 10 μL of this culture was then transferred into 96-well microtiter plates (deep well) containing 390 μL A5-glucose-xylose medium and 10 μg/mL tetracycline as described in example 2. The plates were then incubated at 37° C. with shaking at 250 rpm and 85% humidity overnight (˜18-24 hours). The deep plates were centrifuged at 4000 rpm for 15 minutes and the clear media supernatant containing the secreted CelA enzyme was used for the high throughput pNPG or cellobiose assay of Example 5.
The CelA libraries were screened in high throughput using the cellobiose assay of Example 5 (Substrate: cellobiose; pH: 5-7; temperature: 45-72° C.; time: 2-24 hrs) for the identification of improved variants.
In shallow, 96-well microtiter plates 25 μL of media supernatant was added to 75 μL of […] cellobiose in 150 mM sodium acetate buffer pH 5-5.5 or 150 mM sodium phosphate buffer pH6-7. After sealing with aluminum/polypropylene laminate heat seal tape (Velocity 11 (Menlo Park, Calif.), Cat#06643-001), the plates were shaken at 45-65° C. for up to 24 hrs. The plates were centrifuged for 5 minutes at 4000 rpm. In shallow well clear microtiter plates, 10 μL of the reaction mixture was added to 190 μL of GOPOD reagent (as in example 5B) per well. The solutions were incubated at 45° C. for 1 hour and absorbance was measured at 510 nm for the identification of active CelA variants.
Improved CelA variants were identified from the high throughput screening of various CelA variant libraries as described in Example 7, using the cellobiose assay of Example 5 using 3.3 g/l cellobiose at temperatures from 50°-55° C. at a pH in the range of 5.3-6.5. Tables 2A, 2B, 2C, and 2D and Table 3 depict the improvement in activities of CelA variants encompassed by the invention. The assay conditions are indicated in each table. […]

B1: 1 (protein)
chain: STAIAQEGAAPAAILHPEKWPRPATQRLIDPAVEKRVDALLKQLSVEEKVGQVIQGDIGTITPEDLRKYPLGSILAGGNSGPNGDDRAPPKEWLDLADAFYRVSLEKRPGHTPIPVLFGIDAVHGHGNIGSATIFPHNIALGATHDPELLRRIGEVTAVEMAATGIDWTFAPALSVVRDDRWGRTYEGFSEDPEIVAAYSAAIVESVQGKFGSKDFMAPGRIVASAKHFLADGGTDQGRDQGDARISEDELIRIHNAGYPPAIDAGVLTVMASFSSWQGIKHHGHKQLLTDVLKGQMGFNGFIVGDWNAHDQVPGCTKFNCPTSLIAGLDMYMAADSWKQLYENTLAQVKDGTIPMARLDDAVRRILRVKVLAGLFEKPAPKDRPGLPGLETLGSPEHRAVGREAVRKSLVLLKNDKGTLPLSPKARVLVAGDGADNIGKQSGGWTISWQGTGNRNDEFPGATSILGGIRDAVADAGGSVEFDVAGQYKTKPDVAIVVFGEEPYAEFQGDVETLEYQPDQKQDLALLKKLKDQGIPVVAVFLSGRPMWVNPELNASDAFVAAWLPGTEGGGVADVLFTDKAGKVQHDFAGKLSYSWPRTAAQTTVNRGDADYNPLFAYGYGLTYKDKSKVGTLPEESGVPAEARQNAGIYFRAGALRLPGRFL
  Fold improvement over wildtype CelA: + (+ = 1.1 to 2.0 fold improvement over native CelA (SEQ ID NO: 4))

B2: 5 (protein)
chain: STAIAQEGAAPAAILHPEKWPRPATQRLIDPAVEKRVDALLKQLSVEEKVGQVIQGDIGTITPEDLRKYPLGSILAGGNSGPNGDDRAPPKEWLDLADAFYRVSLEKRPGHTPIPVLFGIDAVHGHGNIGSATIFPHNIALGATRDPELLRRIGEVTAVEMAATGIDWTFAPALSVVRDDRWGRTYEGFSEDPEIVAAYSAAIVEGVQGKFGSKDFMAPGRIVASAKHFLADGGTDQGRDQGDARISEDELIRIHNAGYPPAIDAGVLTVMASFSSWQGIKHHGHKQLLTDVLKGQMGFNGFIVGDWNAHDQVPGCTKFNCPTSLIAGLDMYMAADSWKQLYENTLAQVKDGTIPMARLDDAVRRILRVKVLAGLFEKPAPKDRPGLPGLETLGSPEHRAVGREAVRKSLVLLKNDKGTLPLSPKARVLVAGDGADNIGKQSGGWTISWQGTGNRNDEFPGATSILGGIRDAVADAGGSVEFDVAGQYKTKPDVAIVVFGEEPYAEFQGDVETLEYQPDQKQDLALLKKLKDQGIPVVAVFLSGRPMWVNPELNASDAFVAAWLPGTEGGGVADVLFTDKAGKVQHDFAGKLSYSWPRTAAQTTVNRGDADYNPLFAYGYGLTYKDKSKVGTLPEESGVPAEARQNAGIYFRAGALRLPGRFL
  Fold improvement over wildtype CelA: + (+ = 1.1 to 2.0 fold improvement over native CelA (SEQ ID NO: 4))

B3: 3 (protein)
chain: STAIAQEGAAPAAILHPEKWPRPATQRLIDPAVEKRVDALLKQLSVEEKVGQVIQGDIGTITPEDLRKYPLGSILAGGNSGPNGDDRAPPKEWLDLADAFYRVSLEKRPGHTPIPVLFGIDAVHGHGNIGSATIFPHNIALGATHDPELLRRIGEVTAVEMAATGIDWTFAPALSVVRDDRWGRTYEGFSEDPEIVAAYSAAIVEGVQGKFGSKDFMAPGRIVASAKHFLADGGTDQGRDQGDARISEDELIRIHNAGYPPAIDAGVLTVMASFSSWQGIKHHGHKELLTDVLKGQMGFNGFIVGDWNAHDQVPGCTKFNCPTSLIAGLDMYMAADSWKQLYENTLAQVKDGTIPMARLDDAVRRILRVKVLAGLFEKPAPKDRPGLPGLETLGSPEHRAVGREAVRKSLVLLKNDKGTLPLSPKARVLVAGDGADNIGKQSGGWTISWQGTGNRNDEFPGATSILGGIRDAVADAGGSVEFDVAGQYKTKPDVAIVVFGEEPYAEFQGDVETLEYQPDQKQDLALLKKLKDQGIPVVAVFLSGRPMWVNPELNASDAFVAAWLPGTEGGGVADVLFTDKAGKVQHDFAGKLSYSWPRTAAQTTVNRGDADYNPLFAYGYGLTYKDKSKVGTLPEESGVPAEARQNAGIYFRAGALRLPGRFL
  Fold improvement over wildtype CelA: + (+ = 1.1 to 2.0 fold improvement over native CelA (SEQ ID NO: 4))

B4: 2 (protein)
chain: STAIAQEGAAPAAILHPEKWPRPATQRLIDPAVEKRVDALLKQLSVEEKVGQVIQGDIGTITPEDLRKYPLGSILAGGNSGPNGDDRAPPKEWLDLADAFYRVSLEKRPGHTPIPVLFGIDAVHGHGKIGSATIFPHNIALGATHDPELLRRIGEVTAVEMAATGIDWTFAPALSVVRDDRWGRTYEGFSEDPEIVAAYSAAIVEGVQGKFGSKDFMAPGRIVASAKHFLADGGTDQGRDQGDARISEDELIRIHNAGYPPAIDAGVLTVMASFSSWQGIKHHGHKQLLTDVLKGQMGFNGFIVGDWNAHDQVPGCTKFNCPTSLIAGLDMYMAADSWKQLYENTLAQVKDGTIPMARLDDAVRRILRVKVLAGLFEKPAPKDRPGLPGLETLGSPEHRAVGREAVRKSLVLLKNDKGTLPLSPKARVLVAGDGADNIGKQSGGWTISWQGTGNRNDEFPGATSILGGIRDAVADAGGSVEFDVAGQYKTKPDVAIVVFGEEPYAEFQGDVETLEYQPDQKQDLALLKKLKDQGIPVVAVFLSGRPMWVNPELNASDAFVAAWLPGTEGGGVADVLFTDKAGKVQHDFAGKLSYSWPRTAAQTTVNRGDADYNPLFAYGYGLTYKDKSKVGTLPEESGVPAEARQNAGIYFRAGALRLPGRFL
  Fold improvement over wildtype CelA: + (+ = 1.1 to 2.0 fold improvement over native CelA (SEQ ID NO: 4))

B5: 6 (protein)
chain: STAIAQEGAAPAAILHPEKWPRPATQRLIDPAVEKRVDALLKQLSVEEKVGQVIQGDIGTITPEDLRKYPLGSILAGGNSGPNGDDRAPPKEWLDLADAFYRVSLEKRPGHTPIPVLFGIDAVHGHGNIGSATIFPHNIALGATHDPELLRRIGEVTAVEMSATGIDWTFAPALSVVRDDRWGRTYEGFSEDPEIVAAYSAAIVEGVQGKFGSKDFMAPGRIVASAKHFLADGGTDQGRDQGDARISEDELIRIHNAGYPPAIDAGVLTVMASFSSWQGIKHHGHKQLLTDVLKGQMGFNGFIVGDWNAHDQVPGCTKFNCPTSLIAGLDMYMAADSWKQLYENTLAQVKDGTIPMARLDDAVRRILRVKVLAGLFEKPAPKDRPGLPGLETLGSPEHRAVGREAVRKSLVLLKNDKGTLPLSPKARVLVAGDGADNIGKQSGGWTISWQGTGNRNDEFPGATSILGGIRDAVADAGGSVEFDVAGQYKTKPDVAIVVFGEEPYAEFQGDVETLEYQPDQKQDLALLKKLKDQGIPVVAVFLSGRPMWVNPELNASDAFVAAWLPGTEGGGVADVLFTDKAGKVQHDFAGKLSYSWPRTAAQTTVNRGDADYNPLFAYGYGLTYKDKSKVGTLPEESGVPAEARQNAGIYFRAGALRLPGRFL
  Fold improvement over wildtype CelA: + (+ = 1.1 to 2.0 fold improvement over native CelA (SEQ ID NO: 4))

B6: 4 (protein)
chain: STAIAQEGAAPAAILHPEKWPRPATQRLIDPAVEKRVDALLKQLSVEEKVGQVIQGDIGTITPEDLRKYPLGSILAGGNSGPNGDDRAPPKEWLDLADAFYRVSLEKRPGHTPIPVLFGIDAVHGHGNIGSATIFPHNIALGATHDPELLRRIGEVTAVEMAATGIDWTFAPALSVVRDDRWGRTYEGFSEDPEIVAAYSAAIVEGVQGKFGSKDFMAPGRIVASAKHFLADGGTDQGRDQGDARISEDELIRIHNAGYPPAIDAGVLTVMASFSSWQGIKHHGHKQLLTDVLKGQMGFNGFIVGDWNAHGQVPGCTKFNCPTSLIAGLDMYMAADSWKQLYENTLAQVKDGTIPMARLDDAVRRILRVKVLAGLFEKPAPKDRPGLPGLETLGSPEHRAVGREAVRKSLVLLKNDKGTLPLSPKARVLVAGDGADNIGKQSGGWTISWQGTGNRNDEFPGATSILGGIRDAVADAGGSVEFDVAGQYKTKPDVAIVVFGEEPYAEFQGDVETLEYQPDQKQDLALLKKLKGQGIPVVAVFLSGRPMWVNPELNASDAFVAAWLPGTEGGGVADVLFTDKAGKVQHDFAGKLSYSWPRAAAQTTVNRGDADYNPLFAYGYGLTYKDKSKVGTLPEESGVPAEARQNAGIYFRAGALRLPGRFL
  Fold improvement over wildtype CelA: + (+ = 1.1 to 2.0 fold improvement over native CelA (SEQ ID NO: 4))
